In US20240400693A1 (Chugai, published 2024):

Columns and labels:
[1] = target: HLA-DQ2.5 on IHW09023 cells loaded with gamma 4a gliadin peptide (human; wheat); assay: cell-based or functional assay
[2] = target: HLA-DQ2.5 on IHW09023 cells loaded with BC hordein peptide (human; barley); assay: cell-based or functional assay
[3] = target: HLA-DQ2.5 on IHW09023 cells loaded with omega1/2 gliadin peptide (human; wheat); assay: cell-based or functional assay
[4] = target: HLA-DQ2.5 on IHW09023 cells loaded with gamma 3 gliadin peptide (human; wheat); assay: cell-based or functional assay
[5] = target: HLA-DQ2.5 on IHW09023 cells loaded with gamma 2 gliadin peptide (human; wheat); assay: cell-based or functional assay
[6] = target: HLA-DQ2.5 on IHW09023 cells loaded with 33mer gliadin peptide (human; wheat); assay: cell-based or functional assay
[7] = target: HLA-DQ2.5 on IHW09023 cells loaded with gamma 4d gliadin peptide (human; wheat); assay: cell-based or functional assay
[8] = target: HLA-DQ2.5 on IHW09023 cells loaded with gamma 1 gliadin peptide (human; wheat); assay: cell-based or functional assay
[9] = target: T1, HLA-DQ7.3 on Ba/F3 cells (human, UniProt P01909 24-216; P01920 33-230, limits assumed); assay: FACS, Ba/F3 cells; %MFI: IC17dK 0, DQN0139bb 100
T1 construct: whole, on cells; also called Ba/F3-HLA-DQ7.3
T1 MHC II alpha: not shown
T1 MHC II beta: not shown

[10] = target: T2, HLA-DQ7.5 on Ba/F3 cells (human, UniProt P01909 24-216; P01920 33-230, limits assumed); assay: FACS, Ba/F3 cells; %MFI: IC17dK 0, DQN0139bb 100
T2 construct: whole, on cells; also called Ba/F3-HLA-DQ7.5

[11] = target: T3, HLA-DQ2.2 on Ba/F3 cells (human, UniProt P01909 24-216, limits assumed); assay: FACS, Ba/F3 cells; %MFI: IC17dK 0, DQN0139bb 100
T3 construct: whole, on cells; also called Ba/F3-HLA-DQ2.2
T3 MHC II alpha: not shown
T3 MHC II beta: not shown

[12] = target: T4, HLA-DQ8 on Ba/F3 cells (human, UniProt P01909 24-216; P01920 33-230, limits assumed); assay: FACS, Ba/F3 cells; %MFI: IC17dK 0, DQN0139bb 100
T4 construct: whole, on cells; also called Ba/F3-HLA-DQ8
T4 MHC II alpha: not shown
T4 MHC II beta: not shown

[13] = target: T5, HLA-DQ2.5 on Ba/F3 cells (human, UniProt P01909 24-216, limits assumed); assay: FACS, Ba/F3 cells; %MFI: IC17dK 0, DQN0139bb 100
T5 construct: whole, on cells; MHC class II without fused peptide; also called Ba/F3-HLA-DQ2.5

[14] = target: T6, HLA-DQ6.3 on Ba/F3 cells (human, UniProt P01920 33-230, limits assumed); assay: FACS, Ba/F3 cells; raw MFI
T6 construct: whole, on cells; also called Ba/F3-HLA-DQ6.3
T6 MHC II alpha: not shown
T6 MHC II beta: not shown

[15] = target: T7, HLA-DQ5.1 on Ba/F3 cells (human, limits assumed); assay: FACS, Ba/F3 cells; raw MFI
T7 construct: whole, on cells; also called Ba/F3-HLA-DQ5.1
T7 MHC II alpha: not shown
T7 MHC II beta: not shown

[16] = target: T8, HLA-DP on Ba/F3 cells (human, UniProt P20036 29-222; P04440 30-225, limits assumed); assay: FACS, Ba/F3 cells; raw MFI
T8 construct: whole, on cells; also called Ba/F3-HLA-DP
T8 sequence (P20036 29-222 limits assumed, chain 1 of 4, other chains not shown): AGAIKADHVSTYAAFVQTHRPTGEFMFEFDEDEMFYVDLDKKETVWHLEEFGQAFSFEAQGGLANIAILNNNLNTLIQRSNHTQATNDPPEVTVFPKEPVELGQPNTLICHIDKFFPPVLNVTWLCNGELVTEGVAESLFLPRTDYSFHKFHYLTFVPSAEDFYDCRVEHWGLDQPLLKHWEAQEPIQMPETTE
T8 sequence (P04440 30-225 limits assumed, chain 2 of 4, other chains not shown): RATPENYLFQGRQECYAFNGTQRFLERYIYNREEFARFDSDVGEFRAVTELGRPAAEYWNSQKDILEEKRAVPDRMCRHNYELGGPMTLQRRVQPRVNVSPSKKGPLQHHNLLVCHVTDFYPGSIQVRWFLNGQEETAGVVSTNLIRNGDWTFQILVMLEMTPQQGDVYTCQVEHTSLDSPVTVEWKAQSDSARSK

[17] = target: T9, HLA-DR on Ba/F3 cells (human, UniProt P01903 26-216; P79483 30-227, limits assumed); assay: FACS, Ba/F3 cells; raw MFI
T9 construct: whole, on cells; also called Ba/F3-HLA-DR
T9 MHC II alpha: not shown
T9 MHC II beta: not shown

B1: DQN0344H1013/L0620//DQN0385H1352/L0681-F6 (bispecific antibody)
heavy 1: QVQLVESGGGVVQPGRSLRLSCAASGFTFSSAYWMVWVRQAPGQGLEWMGAVYGGSDTTYYAKWTEGRFTISRDTSKNTLYLQMNSLRAEDTAVYYCAREPLNYYYYGELNVWGQGTLVTVSSASTKGPSVFPLAPSSKSTSGGTAALGCLVKDYFPEPVTVSWNSGALTSGVHTFPAVLKSSGLYSLSSVVTVPSSSLGTQTYICNVNHKPSNTKVDKRVEPKSCDKTHTCPPCPAPELRRGPSVFLFPPKPKDTLMISRTPEVTCVVVDVSHEDPEVKFNWYVDGVEVHNAKTKPREEQYNSTYRVVSVLTVLHQDWLNGKEYKCKVSNKALPAPIEKTISKAKGQPREPQVYTLPPSREEMTKNQVSLTCLVKGFYPSDIAVEWESNGQPENNYKTTPPYLDSDGSFFLYSKLTVDKSRWQEGNVFSCSVLHEALHAHYTREELSLSP
light 1: DIQMTQSPSSLSASVGDRVTITCQATENIYSGLAWYQQKPGKAPKLLIYYVSTLAYGIPARFSGSGSGTDFTLTISSLEPEDFAVYYCQTYEDVSAVTFGQGTKVEIKRTVAAPSVFIFPPSDEQLKSGTAEVVCLLNNFYPREAKVQWKVDNALQSGNSEESVTEQDSKDSTYSLSSTLTLSKADYEKHKVYACEVTHQGLSSPVTKSFNRGEC
heavy 2: QVQLVESGGGVVQPGRSLRLSCAASGFEFSEWYFMSWVRQAPGKGLEWVASIDTGSGSIDYAEWVEGRFTISRDNSKNTLYLQMNSLRAEDTAVYYCARDIGIDYNFWGPGTLVTVSSASTKGPSVFPLAPSSKSTSGGTAALGCLVEDYFPEPVTVSWNSGALTSGVHTFPAVLESSGLYSLSSVVTVPSSSLGTKTYICNVNHKPSNTKVDKRVEPKSCDKTHTCPPCPAPELRRGPSVFLFPPKPKDTLMISRTPEVTCVVVDVSHEDPEVKFNWYVDGVEVHNAKTKPREEQYNSTYRVVSVLTVLHQDWLNGKEYKCKVSNKALPAPIEKTISKAKGQPREPQVYTLPPSRKEMTKNQVSLTCLVKGFYPSDIAVEWESNGQPENNYKTTPPYLDSDGSFFLYSKLTVDKSRWQQGNVFSCSVLHEALHAHYTRKELSLSP
light 2: DIQMTQSPSSLSASVGDRVTITCQTTQSISSYLNWYQQKPGQPPKLLIYYASTKAEGIPARFSGSGLGTDFTLTISSLEPEDFAVYYCHYGISKVSFGQGTKVEIKRTVAAPSVFIFPPSDEQLKSGTAKVVCLLNNFYPREAKVQWKVDNALQSGNSKESVTEQDSKDSTYSLSSTLTLSKADYEKHKVYACEVTHQGLSSPVTKSFNRGEC
- IC50 (ng/mL), γ4a gliadin TCR, 25 µM γ4a gliadin [1]: 1730 ng/mL
- IC50 (ng/mL), BC hordein TCR, 250 nM BC hordein [2]: 11.6 ng/mL
- IC50 (ng/mL), ω1 gliadin TCR, 25 µM ω1/2 gliadin [3]: 1.88 ng/mL
- IC50 (ng/mL), ω2 gliadin TCR, 250 nM ω1/2 gliadin [3]: 0.27 ng/mL
- IC50 (ng/mL), γ3 gliadin TCR, 100 µM γ3 gliadin [4]: 3.15 ng/mL
- IC50 (ng/mL), γ2 gliadin TCR, 250 nM γ2 gliadin [5]: 279 ng/mL
- IC50 (ng/mL), α1a gliadin TCR, 250 nM 33mer gliadin [6]: 0.26 ng/mL
- IC50 (ng/mL), α1b gliadin TCR, 250 nM 33mer gliadin [6]: 1.13 ng/mL
- IC50 (ng/mL), α2 gliadin TCR, 250 nM 33mer gliadin [6]: 0.38 ng/mL
- IC50 (ng/mL), γ4d gliadin TCR, 100 µM γ4d gliadin [7]: 3.15 ng/mL
- IC50 (ng/mL), γ1 gliadin TCR, 250 nM γ1 gliadin [8]: 1.71 ng/mL
- binding result [9]: no binding (tested: 0.05 micro g/mL)
- binding result [10]: no binding (tested: 0.05 micro g/mL)
- binding result [11]: no binding (tested: 0.05 micro g/mL)
- binding result [12]: no binding (tested: 0.05 micro g/mL)
- binding result [13]: no binding (tested: 0.05 micro g/mL)
- binding result [14]: no binding (tested: 0.05 micro g/mL)
- binding result [15]: no binding (tested: 0.05 micro g/mL)
- binding result [16]: no binding (tested: 0.05 micro g/mL)
- binding result [17]: no binding (tested: 0.05 micro g/mL)
